The target in this data set is T1, SynRuvC E75A (Synechocystis sp. PCC6803, UniProt Q55506 1-167, E75A).
T1 sequence: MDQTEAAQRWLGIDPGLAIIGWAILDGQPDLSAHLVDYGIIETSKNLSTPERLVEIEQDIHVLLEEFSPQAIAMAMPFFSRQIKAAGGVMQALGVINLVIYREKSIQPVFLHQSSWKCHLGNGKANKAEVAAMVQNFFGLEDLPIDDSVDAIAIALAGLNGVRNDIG
As to the kind of experiment: EMSA; EMSA: 50 nM 5'-FAM DNA, 0-2000 nM protein, 20 mM HEPES pH 7.5, 50 mM NaCl, 1 mM DTT, 10% DMSO, 1% glycerol, no metal listed, 37 C 60 min; 5% native PAGE in 1x TAE. The following applies: protein: recombinant; tags: His-SUMO N-terminal, removed (purified as WT); chain copies: 2; label: 5'-FAM on one strand; four-way junction, 13 bp homologous core. For orientation: A gel shift assay detects complexes by their altered migration in electrophoresis.

B1: 4Jh (structured_DNA)
DNA 1: GCAATTCGATCGTTGACATCTCGCGTGCTCGGTCAATCGGCAGATGCGGAGTGAAGTTCCAACGTTCGGC
DNA 2: CCTGCAGGATGGTAGGACGGCCTCGCAATCCCGATTGACCGAGCACGCGAGATGTCAACGATCGAATTGC
DNA 3: GCCGAACGTTGGAACTTCACTCCGCATCTGCCGATTGACCGAGTGGCGTGTTTCTGGTGGTTCCTAGGTC
DNA 4: GACCTAGGAACCACCAGAAACACGCCACTCGGTCAATCGGGATTGCGAGGCCGTCCTACCATCCTGCAGG
B1: the binding result is listed as “no binding”.

The values above are taken from article PMC11063404, “Classical and novel properties of Holliday junction resolvase SynRuvC from Synechocystis sp. PCC6803”.
